B1: LINE1-mini (parent)
chain: GGCAGAGCUCAACACAGCGUGGCAAAGUGGCUGUGGCUAGACUGCC

Variants of: B1
Assay: self-cleavage, relative activity (ratio to wild type); higher = more cleavage; in vitro, sequencing; the parent is a self-cleaving ribozyme

Variant	self-cleavage
GGCAGAGCUCAUCACAGCGUGGCAAAGUGGCUGUGGCUAGACAGCC [A12U U43A]	0.04
GGCAGAGCUCAUCACAGCGUGGCAAAGUGGCUGUGGCUAGACGGCC [A12U U43G]	0.12
GGCAGAGCUCAUCACAGCGUGGCAAAGUGGCUGUGGCUAGACCGCC [A12U U43C]	0.14
GGCAGAGCUCAUCACAGCGUGGCAAAGUGGCUGUGACUAGACUGCC [A12U G36A]	0.04
GGCAGAGCUCAUCACAGCGUGGCAAAGUGGCUGUGUCUAGACUGCC [A12U G36U]	0.16
GGCAGAGCUCAUCACAGCGUGGCAAAGUGGCUGUGCCUAGACUGCC [A12U G36C]	0.04
GGCAGAGCUCAAAACCGCGUGGCAAAGUGGCUGUGGCUAGACUGCC [C13A A16C]	0.08
GGCAGAGCUCAAAACGGCGUGGCAAAGUGGCUGUGGCUAGACUGCC [C13A A16G]	0.03
GGCAGAGCUCAAAACUGCGUGGCAAAGUGGCUGUGGCUAGACUGCC [C13A A16U]	0.09
GGCAGAGCUCAUCACAGCUUGGCAAAGUGGCUGUGGCUAGACUGCC [A12U G19U]	0.19
GGCAGAGCUCAUCACAGCCUGGCAAAGUGGCUGUGGCUAGACUGCC [A12U G19C]	0.32
GGCAGAGCUCAUCACAGCAUGGCAAAGUGGCUGUGGCUAGACUGCC [A12U G19A]	0.42
GGCAGAGCUCAAAACAGCGUGGCAACGUGGCUGUGGCUAGACUGCC [C13A A26C]	0.18
GGCAGAGCUCAAAACAGCGUGGCAAGGUGGCUGUGGCUAGACUGCC [C13A A26G]	0.12
GGCAGAGCUCAAAACAGCGUGGCAAUGUGGCUGUGGCUAGACUGCC [C13A A26U]	0.11
GGCAGAGCUCAUCACAGCGUGGCAAAGUGGCUGCGGCUAGACUGCC [A12U U34C]	0.03
GGCAGAGCUCAUCACAGCGUGGCAAAGUGGCUGGGGCUAGACUGCC [A12U U34G]	0.04
GGCAGAGCUCAUCACAGCGUGGCAAAGUGGCUGAGGCUAGACUGCC [A12U U34A]	0.03
GGCAGAGCUCAAAACAGCGUGGCAAAGUGGCUGUGGCUAGAUUGCC [C13A C42U]	0.09
GGCAGAGCUCAAAACAGCGUGGCAAAGUGGCUGUGGCUAGAAUGCC [C13A C42A]	0.09
GGCAGAGCUCAAAACAGCGUGGCAAAGUGGCUGUGGCUAGAGUGCC [C13A C42G]	0.08
GGCAGAGCUCAAAACAGCGUGGCAAAGUGGCUGUGGCUAGCCUGCC [C13A A41C]	0.06
GGCAGAGCUCAAAACAGCGUGGCAAAGUGGCUGUGGCUAGUCUGCC [C13A A41U]	0.14

Variant	self-cleavage
GGCAGAGCUCAAAACAGCGUGGCAAAGUGGCUGUGGCUAGGCUGCC [C13A A41G]	0.12
GGCAGAGCUCAAAACAGCGUGGCAGAGUGGCUGUGGCUAGACUGCC [C13A A25G]	0.1
GGCAGAGCUCAAAACAGCGUGGCAUAGUGGCUGUGGCUAGACUGCC [C13A A25U]	0.11
GGCAGAGCUCAAAACAGCGUGGCACAGUGGCUGUGGCUAGACUGCC [C13A A25C]	0.06
GGCAGAGCUCAAAAAAGCGUGGCAAAGUGGCUGUGGCUAGACUGCC [C13A C15A]	0.08
GGCAGAGCUCAAAAUAGCGUGGCAAAGUGGCUGUGGCUAGACUGCC [C13A C15U]	0.12
GGCAGAGCUCAAAAGAGCGUGGCAAAGUGGCUGUGGCUAGACUGCC [C13A C15G]	0.08
GGCAGAGCUCAAAACAGCGUGGCAAAGUGGCUGUGGCUAGACUGCA [C13A C46A]	0.07
GGCAGAGCUCAAAACAGCGUGGCAAAGUGGCUGUGGCUAGACUGCG [C13A C46G]	0.06
GGCAGAGCUCAAAACAGCGUGGCAAAGUGGCUGUGGCUAGACUGCU [C13A C46U]	0.08
GGCAGAGCUCAUCACAGCGUGGCAAAGUGGCUGUGGCUAGACUCCC [A12U G44C]	0.17
GGCAGAGCUCAUCACAGCGUGGCAAAGUGGCUGUGGCUAGACUUCC [A12U G44U]	0.11
GGCAGAGCUCAUCACAGCGUGGCAAAGUGGCUGUGGCUAGACUACC [A12U G44A]	0.22
GGCAGAGCUCAAACCAGCGUGGCAAAGUGGCUGUGGCUAGACUGCC [C13A A14C]	0.08
GGCAGAGCUCAAAUCAGCGUGGCAAAGUGGCUGUGGCUAGACUGCC [C13A A14U]	0.12
GGCAGAGCUCAAAGCAGCGUGGCAAAGUGGCUGUGGCUAGACUGCC [C13A A14G]	0.08
GGCAGAGCUCAUCACAGCGUGGCAAAGUGUCUGUGGCUAGACUGCC [A12U G30U]	0.58
GGCAGAGCUCAUCACAGCGUGGCAAAGUGCCUGUGGCUAGACUGCC [A12U G30C]	0.46
GGCAGAGCUCAUCACAGCGUGGCAAAGUGACUGUGGCUAGACUGCC [A12U G30A]	0.48
GGCAGAGCUCAUCACAGCGUGGCAAAGUGGCUGUGGCUAGACUGUC [A12U C45U]	0.27
GGCAGAGCUCAUCACAGCGUGGCAAAGUGGCUGUGGCUAGACUGGC [A12U C45G]	0.08
GGCAGAGCUCAUCACAGCGUGGCAAAGUGGCUGUGGCUAGACUGCG [A12U C46G]	0.45
GGCAGAGCUCAUCACAGCGUGGCAAAGUGGCUGUGGCUAGACUGCU [A12U C46U]	0.27

Variant	self-cleavage
GGCAGAGCUCAUCACAGCGUGGCAAAGUGGCUGUGGCUAGACUGCA [A12U C46A]	0.27
GGCAGAGCUCAUCACAGCGUGGCAAAGUGGCUGUCGCUAGACUGCC [A12U G35C]	0.05
GGCAGAGCUCAUCACAGCGUGGCAAAGUGGCUGUAGCUAGACUGCC [A12U G35A]	0.19
GGCAGAGCUCAUCACAGCGUGGCAAAGUGGCUGUUGCUAGACUGCC [A12U G35U]	0.13
GGCAGAGCUCAUCACAGCGUGGCAAAAUGGCUGUGGCUAGACUGCC [A12U G27A]	0.3
GGCAGAGCUCAUCACAGCGUGGCAAACUGGCUGUGGCUAGACUGCC [A12U G27C]	0.22
GGCAGAGCUCAUCACAGCGUGGCAAAUUGGCUGUGGCUAGACUGCC [A12U G27U]	0.23
GGCAGAGCUCAAAACAGCGUAGCAAAGUGGCUGUGGCUAGACUGCC [C13A G21A]	0.23
GGCAGAGCUCAUCACAGCGCGGCAAAGUGGCUGUGGCUAGACUGCC [A12U U20C]	0.25
GGCAGAGCUCAUCACAGCGGGGCAAAGUGGCUGUGGCUAGACUGCC [A12U U20G]	0.09
GGCAGAGCUCAUCACAGCGAGGCAAAGUGGCUGUGGCUAGACUGCC [A12U U20A]	0.12
GGCAGAGCUCAUCACAGCGUGGCAAAGUGGCCGUGGCUAGACUGCC [A12U U32C]	0.07
GGCAGAGCUCAUCACAGCGUGGCAAAGUGGCAGUGGCUAGACUGCC [A12U U32A]	0.04
GGCAGAGCUCAUCACAGCGUGGCAAAGUGGCGGUGGCUAGACUGCC [A12U U32G]	0.08
GGCAGAGCUCAUCACAGCGUGGCAAAGUGGCUGUGGCCAGACUGCC [A12U U38C]	0.14
GGCAGAGCUCAUCACAGCGUGGCAAAGUGGCUGUGGCAAGACUGCC [A12U U38A]	0.09
GGCAGAGCUCAUCACAGCGUGGCAAAGUGGCUGUGGCGAGACUGCC [A12U U38G]	0.02
GGCAGAGCUCAUCACACCGUGGCAAAGUGGCUGUGGCUAGACUGCC [A12U G17C]	0.25
GGCAGAGCUCAUCACAUCGUGGCAAAGUGGCUGUGGCUAGACUGCC [A12U G17U]	0.09
GGCAGAGCUCAUCACAACGUGGCAAAGUGGCUGUGGCUAGACUGCC [A12U G17A]	0.05
GGCAGAGCUCAAAACAGCGUGGCAAAGUGGCUGUGGUUAGACUGCC [C13A C37U]	0.34
GGCAGAGCUCAAAACAGCGUGGCAAAGUGGCUGUGGAUAGACUGCC [C13A C37A]	0.09
GGCAGAGCUCAAAACAGCGUGGCAAAGUGGCUGUGGGUAGACUGCC [C13A C37G]	0.05

Variant	self-cleavage
GGCAGAGCUCAUCACAGCGUGGCAAAGGGGCUGUGGCUAGACUGCC [A12U U28G]	0.12
GGCAGAGCUCAUCACAGCGUGGCAAAGAGGCUGUGGCUAGACUGCC [A12U U28A]	0.2
GGCAGAGCUCAUCACAGCGUGGCAAAGCGGCUGUGGCUAGACUGCC [A12U U28C]	0.6
GGCAGAGCUCAUCACAGCGUGACAAAGUGGCUGUGGCUAGACUGCC [A12U G22A]	0.4
GGCAGAGCUCAUCACAGCGUGCCAAAGUGGCUGUGGCUAGACUGCC [A12U G22C]	0.26
GGCAGAGCUCAUCACAGCGUGUCAAAGUGGCUGUGGCUAGACUGCC [A12U G22U]	0.29
GGCAGAGCUCAUCACAGCGUGGCAAAGUAGCUGUGGCUAGACUGCC [A12U G29A]	0.31
GGCAGAGCUCAUCACAGCGUGGCAAAGUCGCUGUGGCUAGACUGCC [A12U G29C]	0.05
GGCAGAGCUCAUCACAGCGUGGCAAAGUUGCUGUGGCUAGACUGCC [A12U G29U]	0.37
GGCAGAGCUCAAAACAGCGUGGGAAAGUGGCUGUGGCUAGACUGCC [C13A C23G]	0.13
GGCAGAGCUCAAAACAGCGUGGAAAAGUGGCUGUGGCUAGACUGCC [C13A C23A]	0.16
GGCAGAGCUCAAAACAGCGUGGUAAAGUGGCUGUGGCUAGACUGCC [C13A C23U]	0.16
GGCAGAGCUCAAAACAGGGUGGCAAAGUGGCUGUGGCUAGACUGCC [C13A C18G]	0.12
GGCAGAGCUCAAAACAGAGUGGCAAAGUGGCUGUGGCUAGACUGCC [C13A C18A]	0.09
GGCAGAGCUCAAAACAGUGUGGCAAAGUGGCUGUGGCUAGACUGCC [C13A C18U]	0.09
GGCAGAGCUCAAAACAGCGUGGCAAAGUGGCUGUGGCUAGACUGCC [C13A]	0.15
GGCAGAGCUCAAAACAGCGUGGCAAAGUGGCUGUGGCUUGACUGCC [C13A A39U]	0.23
GGCAGAGCUCAAAACAGCGUGGCAAAGUGGCUGUGGCUCGACUGCC [C13A A39C]	0.17
GGCAGAGCUCAAAACAGCGUGGCAAAGUGGCUGUGGCUGGACUGCC [C13A A39G]	0.15
GGCAGAGCUCAAAACAGCGUGGCAAAGUGGCUGUGGCUAGACUGGC [C13A C45G]	0.09
GGCAGAGCUCAAAACAGCGUGGCAAAGUGGCUGUGGCUAGACUGAC [C13A C45A]	0.08
GGCAGAGCUCAAAACAGCGUGGCAAAGUGGCUGUGGCUAGACUGUC [C13A C45U]	0.15
GGCAGAGCUCAAAACAUCGUGGCAAAGUGGCUGUGGCUAGACUGCC [C13A G17U]	0.11

Variant	self-cleavage
GGCAGAGCUCAAAACAACGUGGCAAAGUGGCUGUGGCUAGACUGCC [C13A G17A]	0.1
GGCAGAGCUCAAAACACCGUGGCAAAGUGGCUGUGGCUAGACUGCC [C13A G17C]	0.1
GGCAGAGCUCAUCACAGCGUGGCAAAGUGGCUGUGGCUAAACUGCC [A12U G40A]	0.21
GGCAGAGCUCAUCACAGCGUGGCAAAGUGGCUGUGGCUAUACUGCC [A12U G40U]	0.17
GGCAGAGCUCAUCACAGCGUGGCAAAGUGGCUGUGGCUACACUGCC [A12U G40C]	0.06
GGCAGAGCUCAUCACAGCGUGGCAAAGUGGCUUUGGCUAGACUGCC [A12U G33U]	0.04
GGCAGAGCUCAUCACAGCGUGGCAAAGUGGCUAUGGCUAGACUGCC [A12U G33A]	0.05
GGCAGAGCUCAUCACAGCGUGGCAAAGUGGCUCUGGCUAGACUGCC [A12U G33C]	0.03
GGCAGAGCUCAAAACAGCGUGGCCAAGUGGCUGUGGCUAGACUGCC [C13A A24C]	0.18
GGCAGAGCUCAAAACAGCGUGGCUAAGUGGCUGUGGCUAGACUGCC [C13A A24U]	0.08
GGCAGAGCUCAAAACAGCGUGGCGAAGUGGCUGUGGCUAGACUGCC [C13A A24G]	0.11
GGCAGAGCUCAAAACAGCCUGGCAAAGUGGCUGUGGCUAGACUGCC [C13A G19C]	0.06
GGCAGAGCUCAAAACAGCUUGGCAAAGUGGCUGUGGCUAGACUGCC [C13A G19U]	0.09
GGCAGAGCUCAAAACAGCAUGGCAAAGUGGCUGUGGCUAGACUGCC [C13A G19A]	0.15
GGCAGAGCUCAUCACAGCGUAGCAAAGUGGCUGUGGCUAGACUGCC [A12U G21A]	0.52
GGCAGAGCUCAUCACAGCGUUGCAAAGUGGCUGUGGCUAGACUGCC [A12U G21U]	0.34
GGCAGAGCUCAUCACAGCGUCGCAAAGUGGCUGUGGCUAGACUGCC [A12U G21C]	0.21
GGCAGAGCUCAAAACAGCGUGGCAAAGUGGGUGUGGCUAGACUGCC [C13A C31G]	0.06
GGCAGAGCUCAAAACAGCGUGGCAAAGUGGUUGUGGCUAGACUGCC [C13A C31U]	0.09
GGCAGAGCUCAAAACAGCGUGGCAAAGUGGAUGUGGCUAGACUGCC [C13A C31A]	0.06

Source: the RNAGym collection of RNA variant scans (doi:10.7554/elife.90254)
